Source: US20120244563A1 (J OIL MILLS, published 2012)

B1: Ulex europaeus lectin (other, UniProt P22972 1-243, looked up)
chain: SDDLSFKFKNFSQNGKDLSFQGDASVIETGVLQLNKVGNNLPDETGGIARYIAPIHIWNCNTGEVASFITSFSFFMETSANPKAATDGLTFFLAPPDSPLRRAGGYFGLFEDTKDNDSSYQTVAVEFDTIGSPVNFDDPGFPHIGIDVNRVKSINAERWNKRYGLNNVANVEIIYEASSKTLTASLTYPSDQTSISVTSIVDLKEILPEWVSVGFSGGTYIGRQATHEVLNWYFTSNLINTNS
modifications: biotin label (site not stated)
notes: Bought, biotin-labeled; also called UEA-I; UEA- 1
B2: Lens culinaris lectin (other)
chain 1: TETTSFSITKFSPDQKNLIFQGDGYTTKGKLTLTKAVKSTVGRALYSTPIHIWDRDTGNVANFVTSFTFVIDAPSSYNVADEFTFFIAPVDTKPQTGGGYLGVFNSKEYDKTSQTVAVEFDTFYNAAWDPSNKERHIGIDVNSIKSVNTKSWNLQNGERANVVIAFNAATNVLTVTLTYP
chain 2: VTSYTLNEVVPLKDVVPEWVRIGFSATTGAEFAAHEVHSWSFHSELGGTSSS
modifications: biotin label (site not stated)
notes: Bought, biotin-labeled; The natural lectin is processed into alpha and beta chains; also called LCA
B3: Aleuria aurantia lectin (other, UniProt P18891 2-313, looked up)
chain: PTEFLYTSKIAAISWAATGGRQQRVYFQDLNGKIREAQRGGDNPWTGGSSQNVIGEAKLFSPLAAVTWKSAQGIQIRVYCVNKDNILSEFVYDGSKWITGQLGSVGVKVGSNSKLAALQWGGSESAPPNIRVYYQKSNGSGSSIHEYVWSGKWTAGASFGSTVPGTGIGATAIGPGRLRIYYQATDNKIREHCWDSNSWYVGGFSASASAGVSIAAISWGSTPNIRVYWQKGREELYEAAYGGSWNTPGQIKDASRPTPSLPDTFIAANSSGNIDISVFFQASGVSLQQWQWISGKGWSIGAVVPTGTPAGW
modifications: biotin label (site not stated)
notes: Bought, biotin-labeled; also called AAL

Experiments:
[1] = biological target: T1, Haptoglobin from human serum (human, UniProt P00738 19-406, limits assumed, N-linked and O-linked glycans containing almost no fucose); test: ELISA; glycoprotein coated at 10 ng/mL, biotin-labeled lectin
T1 construct: Natural haptoglobin is processed into α and β chains; also called Haptoglobin (HP); Serum HP
T1 sequence (looked up): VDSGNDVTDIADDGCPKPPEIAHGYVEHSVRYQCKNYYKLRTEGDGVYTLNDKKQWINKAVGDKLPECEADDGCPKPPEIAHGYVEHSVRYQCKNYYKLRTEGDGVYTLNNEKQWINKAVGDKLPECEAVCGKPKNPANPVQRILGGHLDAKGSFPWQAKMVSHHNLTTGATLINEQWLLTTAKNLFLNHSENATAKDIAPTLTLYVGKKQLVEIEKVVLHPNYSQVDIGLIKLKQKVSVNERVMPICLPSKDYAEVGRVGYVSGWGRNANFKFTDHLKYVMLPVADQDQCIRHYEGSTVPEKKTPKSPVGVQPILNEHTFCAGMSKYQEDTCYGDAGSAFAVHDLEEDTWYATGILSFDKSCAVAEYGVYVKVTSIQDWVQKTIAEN
Procedure: (§1) Serum glycoprotein (human serum albumin (CALBIOCHEM), Immunoglobulin G (Sigma), transferrin (Sigma), fibrinogen (AbD Serotec), Immunoglobulin A (BETYL) α2-macroglobulin (BMO), Immunoglobulin M (ROCKLAND), Complement C3 (CALBIOCHEM), haptoglobin (BIODESIGN), α1-acidic glycoprotein (Sigma), α-fetoprotein (Fitzgerald), α-fetoprotein L3 (Wako Pure Chemical Industries, Ltd) and prostate-specific antigen (Scipac) were dissolved in PBS at 1 mg/mL, and further diluted to 10 ng/mL with 0.1 M carbonate buffer (pH 9.5). Fifty μL of the diluted solution was added to a microtiter plate (Nunc 439454), and then incubated at 37° C. for 1 hour. After washed once with 0.05% Tween 20 (polyoxyethylene sorbitan monolaurate) (hereafter abbreviated as Tween)/PBS, 200 μL, of 1% bovine serum albumin (BSA)/PBS was added to the wells, and then incubated at 37° C. for 1 hour. The plate was washed twice with 0.05% Tween/PBS.
(§2) Fifty μL of the biotin labeled lectin solution prepared to 1 μg/mL with 1% BSA/0.05% Tween/PBS was added to the wells, and then left at room temperature for 1 hour. After washed twice with 0.05% Tween/PBS, 50 μL of the HRP labeled streptavidin solution (1 μg/mL) diluted with 1% BSA/0.05% Tween/PBS was added to the wells, and then left at room temperature for 30 minutes. After washed three times with 0.05% Tween/PBS, 50 μL of the HRP chromogenic substrate (product name: TMB Peroxidase substrate system, KPL) was added, and then left at room temperature for 5 minutes.
(§3) The absorbance values at 450 nm were subtracted by the absorbance value from the well on the plate in which no glycoprotein was immobilized, and the resulting values were taken as reaction values. Affinity was ranked by classifying the reaction values according to the following criteria.

[2] = biological target: T2, Human serum albumin (human, UniProt P02768 25-609); test: as above
T2 construct: Bought protein coated on the plate; also called HAS
Procedure: as §1, §2, §3

[3] = biological target: T3, α2-Macroglobulin; test: ELISA; coated glycoprotein, biotin-labeled lectin 1 µg/mL; grade of A450 reaction value (Low 0.1 to 0.2, Moderate 0.2 to 0.5, High 0.5 or more)
T3 construct: Bought protein coated on the plate; also called α2MG
T3 sequence (P01023 24-1474, species assumed, looked up): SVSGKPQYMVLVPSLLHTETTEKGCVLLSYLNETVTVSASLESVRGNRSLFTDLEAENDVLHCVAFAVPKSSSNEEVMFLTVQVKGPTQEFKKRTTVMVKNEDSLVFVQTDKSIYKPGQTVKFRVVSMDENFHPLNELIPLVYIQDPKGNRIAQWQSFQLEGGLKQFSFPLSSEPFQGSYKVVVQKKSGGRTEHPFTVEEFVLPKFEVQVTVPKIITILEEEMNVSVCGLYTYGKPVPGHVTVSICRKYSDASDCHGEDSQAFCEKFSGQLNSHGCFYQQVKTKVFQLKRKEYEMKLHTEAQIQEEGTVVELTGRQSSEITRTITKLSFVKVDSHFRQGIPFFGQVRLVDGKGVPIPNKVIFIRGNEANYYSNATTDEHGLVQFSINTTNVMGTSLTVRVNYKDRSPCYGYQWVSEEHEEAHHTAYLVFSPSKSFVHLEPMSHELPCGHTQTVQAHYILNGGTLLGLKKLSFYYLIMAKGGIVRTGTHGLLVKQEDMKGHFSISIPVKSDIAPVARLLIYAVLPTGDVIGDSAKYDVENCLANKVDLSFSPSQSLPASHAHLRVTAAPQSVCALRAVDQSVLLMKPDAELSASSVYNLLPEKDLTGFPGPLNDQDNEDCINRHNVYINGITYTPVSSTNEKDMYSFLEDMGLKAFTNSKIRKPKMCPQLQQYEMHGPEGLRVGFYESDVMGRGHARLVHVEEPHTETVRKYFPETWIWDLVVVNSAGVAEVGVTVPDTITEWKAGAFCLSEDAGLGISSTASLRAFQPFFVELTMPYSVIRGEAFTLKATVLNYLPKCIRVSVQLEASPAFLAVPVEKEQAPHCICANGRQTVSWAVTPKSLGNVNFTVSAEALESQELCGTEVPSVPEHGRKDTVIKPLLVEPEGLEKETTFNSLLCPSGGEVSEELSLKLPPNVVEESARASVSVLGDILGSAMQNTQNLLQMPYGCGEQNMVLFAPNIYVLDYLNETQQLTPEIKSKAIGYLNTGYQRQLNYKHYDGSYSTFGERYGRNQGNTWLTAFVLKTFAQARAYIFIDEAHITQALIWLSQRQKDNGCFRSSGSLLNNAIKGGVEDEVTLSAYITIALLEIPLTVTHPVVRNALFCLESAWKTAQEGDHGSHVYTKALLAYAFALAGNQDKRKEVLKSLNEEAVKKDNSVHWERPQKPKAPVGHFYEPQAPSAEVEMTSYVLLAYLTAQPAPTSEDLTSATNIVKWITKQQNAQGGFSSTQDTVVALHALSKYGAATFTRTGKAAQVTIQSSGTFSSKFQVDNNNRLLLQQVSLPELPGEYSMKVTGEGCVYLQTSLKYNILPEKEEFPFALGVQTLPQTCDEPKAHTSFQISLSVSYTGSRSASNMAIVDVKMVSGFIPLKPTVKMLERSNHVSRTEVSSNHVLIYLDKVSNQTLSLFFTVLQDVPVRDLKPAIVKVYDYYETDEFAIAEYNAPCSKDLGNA
Procedure: as §1, §2, §3

[4] = biological target: T4, Immunoglobulin M; test: as above
T4 construct: Serum glycoprotein coated on the plate; also called IgM
Procedure: as §1, §2, §3

[5] = biological target: T5, α1-Acid glycoprotein; test: as above
T5 construct: Bought protein coated on the plate; also called AGP; α1-acidic glycoprotein
Procedure: as §1, §2, §3

[6] = biological target: T6, Immunoglobulin A; test: as above
T6 construct: Serum glycoprotein coated on the plate; also called IgA
Procedure: as §1, §2, §3

[7] = biological target: T7, Immunoglobulin G; test: as above
T7 construct: Serum glycoprotein coated on the plate; also called IgG
Procedure: as §1, §2, §3

[8] = biological target: T1, Haptoglobin from human serum; test: as above
Procedure: as §1, §2, §3

[9] = biological target: T8, Fibrinogen; test: as above
T8 construct: Bought protein coated on the plate; also called FB
Procedure: as §1, §2, §3

[10] = biological target: T9, Transferrin; test: as above
T9 construct: Bought protein coated on the plate; also called TF
Procedure: as §1, §2, §3

[11] = biological target: T10, Complement C3; test: as above
T10 construct: Bought protein coated on the plate
Procedure: as §1, §2, §3

[12] = biological target: T2, Human serum albumin; test: as above
Procedure: as §1, §2, §3

T2 sequence (P02768 25-609 limits assumed): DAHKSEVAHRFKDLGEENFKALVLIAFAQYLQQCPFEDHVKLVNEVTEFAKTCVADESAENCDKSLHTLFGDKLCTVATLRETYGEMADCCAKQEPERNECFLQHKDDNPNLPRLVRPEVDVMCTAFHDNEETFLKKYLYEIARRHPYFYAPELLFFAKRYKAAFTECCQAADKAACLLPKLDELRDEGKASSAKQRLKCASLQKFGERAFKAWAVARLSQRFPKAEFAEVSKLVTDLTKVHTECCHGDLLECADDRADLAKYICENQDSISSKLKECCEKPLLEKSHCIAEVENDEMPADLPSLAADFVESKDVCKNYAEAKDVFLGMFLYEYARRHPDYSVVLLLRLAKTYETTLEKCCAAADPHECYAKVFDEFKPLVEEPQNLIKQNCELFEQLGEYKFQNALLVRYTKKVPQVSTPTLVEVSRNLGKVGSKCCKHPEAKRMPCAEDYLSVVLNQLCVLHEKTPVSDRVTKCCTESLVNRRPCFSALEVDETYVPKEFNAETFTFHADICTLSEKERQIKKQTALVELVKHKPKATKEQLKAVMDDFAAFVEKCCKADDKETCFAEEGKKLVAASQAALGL
T9 sequence (P02787 20-698): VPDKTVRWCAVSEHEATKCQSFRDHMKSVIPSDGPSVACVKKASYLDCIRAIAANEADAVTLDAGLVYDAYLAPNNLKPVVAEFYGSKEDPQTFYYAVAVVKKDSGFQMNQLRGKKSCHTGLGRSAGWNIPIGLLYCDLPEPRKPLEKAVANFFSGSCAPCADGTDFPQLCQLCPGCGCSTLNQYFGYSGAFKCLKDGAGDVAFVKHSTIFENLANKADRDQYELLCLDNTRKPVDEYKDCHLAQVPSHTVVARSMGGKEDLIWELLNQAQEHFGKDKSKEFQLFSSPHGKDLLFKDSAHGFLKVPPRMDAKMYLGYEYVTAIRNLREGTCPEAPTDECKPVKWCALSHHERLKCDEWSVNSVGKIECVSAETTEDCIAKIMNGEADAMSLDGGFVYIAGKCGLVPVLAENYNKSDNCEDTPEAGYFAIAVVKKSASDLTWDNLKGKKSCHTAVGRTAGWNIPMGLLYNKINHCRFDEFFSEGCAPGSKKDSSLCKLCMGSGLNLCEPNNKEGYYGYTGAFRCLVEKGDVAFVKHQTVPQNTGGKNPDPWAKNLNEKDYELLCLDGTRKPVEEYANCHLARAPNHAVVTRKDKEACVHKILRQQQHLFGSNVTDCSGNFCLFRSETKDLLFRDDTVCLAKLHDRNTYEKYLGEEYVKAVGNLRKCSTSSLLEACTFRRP
T10 sequence (P01024 23-667, chain 1 of 2): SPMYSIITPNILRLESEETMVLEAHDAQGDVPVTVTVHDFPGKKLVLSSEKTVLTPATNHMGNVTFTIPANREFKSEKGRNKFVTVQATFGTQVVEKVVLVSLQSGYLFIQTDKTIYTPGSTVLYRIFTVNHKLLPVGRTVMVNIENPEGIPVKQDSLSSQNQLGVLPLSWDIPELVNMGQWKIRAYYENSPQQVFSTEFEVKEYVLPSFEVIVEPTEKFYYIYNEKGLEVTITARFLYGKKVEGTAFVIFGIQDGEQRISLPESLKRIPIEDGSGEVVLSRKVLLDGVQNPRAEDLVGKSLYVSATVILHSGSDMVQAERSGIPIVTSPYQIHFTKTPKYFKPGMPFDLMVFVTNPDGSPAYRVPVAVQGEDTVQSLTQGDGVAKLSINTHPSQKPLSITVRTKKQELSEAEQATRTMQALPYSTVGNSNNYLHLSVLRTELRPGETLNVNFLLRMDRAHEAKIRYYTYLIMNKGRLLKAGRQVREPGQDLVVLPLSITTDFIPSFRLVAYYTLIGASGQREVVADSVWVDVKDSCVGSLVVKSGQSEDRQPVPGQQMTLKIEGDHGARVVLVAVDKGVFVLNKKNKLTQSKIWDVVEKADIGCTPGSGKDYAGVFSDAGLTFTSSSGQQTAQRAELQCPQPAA
T10 sequence (P01024 672-1663, chain 2 of 2): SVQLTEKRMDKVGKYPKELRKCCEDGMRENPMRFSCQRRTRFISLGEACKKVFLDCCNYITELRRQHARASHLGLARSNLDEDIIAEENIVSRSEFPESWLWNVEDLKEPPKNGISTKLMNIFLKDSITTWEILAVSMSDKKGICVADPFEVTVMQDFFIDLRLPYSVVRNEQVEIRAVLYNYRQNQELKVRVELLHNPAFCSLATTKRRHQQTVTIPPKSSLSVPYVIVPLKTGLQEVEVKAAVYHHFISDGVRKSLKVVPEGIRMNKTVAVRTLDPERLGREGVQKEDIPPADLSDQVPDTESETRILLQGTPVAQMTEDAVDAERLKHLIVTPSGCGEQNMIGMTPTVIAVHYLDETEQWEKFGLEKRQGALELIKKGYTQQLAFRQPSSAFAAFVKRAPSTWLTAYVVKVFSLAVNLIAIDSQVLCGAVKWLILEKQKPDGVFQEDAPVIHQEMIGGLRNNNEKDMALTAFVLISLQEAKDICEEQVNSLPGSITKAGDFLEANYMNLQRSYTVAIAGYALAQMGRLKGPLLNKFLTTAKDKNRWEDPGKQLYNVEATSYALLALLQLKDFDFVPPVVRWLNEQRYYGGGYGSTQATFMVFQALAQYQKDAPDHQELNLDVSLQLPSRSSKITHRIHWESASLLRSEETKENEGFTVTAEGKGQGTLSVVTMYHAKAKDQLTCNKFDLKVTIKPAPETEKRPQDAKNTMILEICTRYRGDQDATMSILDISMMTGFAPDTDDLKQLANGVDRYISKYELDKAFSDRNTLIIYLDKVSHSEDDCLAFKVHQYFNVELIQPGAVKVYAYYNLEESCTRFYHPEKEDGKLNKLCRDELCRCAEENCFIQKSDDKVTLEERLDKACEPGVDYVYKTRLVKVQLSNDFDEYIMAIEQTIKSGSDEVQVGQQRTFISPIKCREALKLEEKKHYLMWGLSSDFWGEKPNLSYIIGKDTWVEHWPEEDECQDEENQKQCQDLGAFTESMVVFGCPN
T5 sequence (P02763 19-201): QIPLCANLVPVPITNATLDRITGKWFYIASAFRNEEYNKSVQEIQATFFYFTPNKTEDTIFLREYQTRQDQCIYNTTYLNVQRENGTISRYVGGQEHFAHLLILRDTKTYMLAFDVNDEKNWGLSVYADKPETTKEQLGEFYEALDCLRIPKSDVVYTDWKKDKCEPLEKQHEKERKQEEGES

binding result [1] | binding result [2] | reaction value (absorbance at 450 nm minus blank) [3] | reaction value (absorbance at 450 nm minus blank) [4] | reaction value (absorbance at 450 nm minus blank) [5] | reaction value (absorbance at 450 nm minus blank) [6] | reaction value (absorbance at 450 nm minus blank) [7] | reaction value (absorbance at 450 nm minus blank) [8] | reaction value (absorbance at 450 nm minus blank) [9] | reaction value (absorbance at 450 nm minus blank) [10] | reaction value (absorbance at 450 nm minus blank) [11] | reaction value (absorbance at 450 nm minus blank) [12] | Binder
no binding | no binding | – | – | – | – | – | – | – | – | – | – | B1
– | no binding | – | – | – | – | – | – | – | – | – | – | B2
– | – | ≥ 0.5 od | 0.2 to 0.5 od | 0.2 to 0.5 od | 0.2 to 0.5 od | 0.1 to 0.2 od | 0.1 to 0.2 od | 0.1 to 0.2 od | 0.1 to 0.2 od | 0.1 to 0.2 od | 0.1 to 0.2 od | B3
